To fix the notation:
T1: EsCas13d, nuclease-dead (Eubacterium siraeum, UniProt B0MS50, R295A;H300A;R849A;H854A)
T1 sequence: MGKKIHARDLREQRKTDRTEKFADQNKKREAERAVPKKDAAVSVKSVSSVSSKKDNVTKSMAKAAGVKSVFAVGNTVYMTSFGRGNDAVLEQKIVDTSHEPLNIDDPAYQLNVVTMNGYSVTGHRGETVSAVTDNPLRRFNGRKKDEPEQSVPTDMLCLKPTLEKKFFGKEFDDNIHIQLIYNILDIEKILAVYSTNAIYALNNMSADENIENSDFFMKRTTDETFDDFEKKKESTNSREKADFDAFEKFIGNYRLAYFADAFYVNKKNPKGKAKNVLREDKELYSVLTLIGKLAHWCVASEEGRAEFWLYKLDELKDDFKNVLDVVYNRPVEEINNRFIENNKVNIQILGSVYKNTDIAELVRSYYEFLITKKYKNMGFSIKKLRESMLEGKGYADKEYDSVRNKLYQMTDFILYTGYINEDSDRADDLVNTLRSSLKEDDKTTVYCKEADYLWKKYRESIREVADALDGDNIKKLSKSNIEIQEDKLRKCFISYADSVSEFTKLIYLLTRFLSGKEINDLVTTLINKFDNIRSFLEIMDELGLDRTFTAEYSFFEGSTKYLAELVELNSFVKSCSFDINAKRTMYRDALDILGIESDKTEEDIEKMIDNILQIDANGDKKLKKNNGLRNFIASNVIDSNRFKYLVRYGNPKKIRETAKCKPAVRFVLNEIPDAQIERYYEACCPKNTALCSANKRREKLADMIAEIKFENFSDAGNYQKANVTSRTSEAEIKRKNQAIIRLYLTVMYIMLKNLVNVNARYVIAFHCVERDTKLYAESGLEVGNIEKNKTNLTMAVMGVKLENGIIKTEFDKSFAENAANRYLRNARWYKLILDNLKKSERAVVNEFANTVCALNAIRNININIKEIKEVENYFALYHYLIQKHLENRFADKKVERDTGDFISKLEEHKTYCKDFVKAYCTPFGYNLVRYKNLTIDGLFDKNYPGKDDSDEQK

B1: target 2 MT 5'PFS GGC 3'PFS UCU (mixed)
RNA 1: CACCCGUGCAAAAUUGCAGGGGUCUAAAACCUUCUCCAAAUUGUUUCAUCCU
RNA 2: GGGAAUGGAUCCACAUCUACGAAUUCGGCAGGAUGAAACAAUUUGGAGAAGUCUAGAUCGGAAGAGCACACGU
B2: target 2 MT 5'PFS UGC 3'PFS AUG (mixed)
RNA 1: CACCCGUGCAAAAUUGCAGGGGUCUAAAACCUUCUCCAAAUUGUUUCAUCCU
RNA 2: GGGAAUGGAUCCACAUCUACGAAUUCUGCAGGAUGAAACAAUUUGGAGAAGAUGAGAUCGGAAGAGCACACGU
B3: target 2 MT 5'PFS GAA 3'PFS UCG (mixed)
RNA 1: CACCCGUGCAAAAUUGCAGGGGUCUAAAACCUUCUCCAAAUUGUUUCAUCCU
RNA 2: GGGAAUGGAUCCACAUCUACGAAUUCGAAAGGAUGAAACAAUUUGGAGAAGUCGAGAUCGGAAGAGCACACGU
B4: target 2 MT 5'PFS GUA 3'PFS CGG (mixed)
RNA 1: CACCCGUGCAAAAUUGCAGGGGUCUAAAACCUUCUCCAAAUUGUUUCAUCCU
RNA 2: GGGAAUGGAUCCACAUCUACGAAUUCGUAAGGAUGAAACAAUUUGGAGAAGCGGAGAUCGGAAGAGCACACGU
B5: target 2 MT 5'PFS GGU 3'PFS UAC (mixed)
RNA 1: CACCCGUGCAAAAUUGCAGGGGUCUAAAACCUUCUCCAAAUUGUUUCAUCCU
RNA 2: GGGAAUGGAUCCACAUCUACGAAUUCGGUAGGAUGAAACAAUUUGGAGAAGUACAGAUCGGAAGAGCACACGU
B6: target 2 MT 5'PFS GUG 3'PFS UUU (mixed)
RNA 1: CACCCGUGCAAAAUUGCAGGGGUCUAAAACCUUCUCCAAAUUGUUUCAUCCU
RNA 2: GGGAAUGGAUCCACAUCUACGAAUUCGUGAGGAUGAAACAAUUUGGAGAAGUUUAGAUCGGAAGAGCACACGU
B7: target 2 MT 5'PFS CAG 3'PFS UAC (mixed)
RNA 1: CACCCGUGCAAAAUUGCAGGGGUCUAAAACCUUCUCCAAAUUGUUUCAUCCU
RNA 2: GGGAAUGGAUCCACAUCUACGAAUUCCAGAGGAUGAAACAAUUUGGAGAAGUACAGAUCGGAAGAGCACACGU
B8: target 2 MT 5'PFS GAA 3'PFS UCC (mixed)
RNA 1: CACCCGUGCAAAAUUGCAGGGGUCUAAAACCUUCUCCAAAUUGUUUCAUCCU
RNA 2: GGGAAUGGAUCCACAUCUACGAAUUCGAAAGGAUGAAACAAUUUGGAGAAGUCCAGAUCGGAAGAGCACACGU
B9: target 2 MT 5'PFS UAG 3'PFS ACC (mixed)
RNA 1: CACCCGUGCAAAAUUGCAGGGGUCUAAAACCUUCUCCAAAUUGUUUCAUCCU
RNA 2: GGGAAUGGAUCCACAUCUACGAAUUCUAGAGGAUGAAACAAUUUGGAGAAGACCAGAUCGGAAGAGCACACGU
B10: target 2 MT 5'PFS GGU 3'PFS CUU (mixed)
RNA 1: CACCCGUGCAAAAUUGCAGGGGUCUAAAACCUUCUCCAAAUUGUUUCAUCCU
RNA 2: GGGAAUGGAUCCACAUCUACGAAUUCGGUAGGAUGAAACAAUUUGGAGAAGCUUAGAUCGGAAGAGCACACGU
B11: target 2 MT 5'PFS UAG 3'PFS ACA (mixed)
RNA 1: CACCCGUGCAAAAUUGCAGGGGUCUAAAACCUUCUCCAAAUUGUUUCAUCCU
RNA 2: GGGAAUGGAUCCACAUCUACGAAUUCUAGAGGAUGAAACAAUUUGGAGAAGACAAGAUCGGAAGAGCACACGU
B12: target 2 MT 5'PFS GCU 3'PFS UGU (mixed)
RNA 1: CACCCGUGCAAAAUUGCAGGGGUCUAAAACCUUCUCCAAAUUGUUUCAUCCU
RNA 2: GGGAAUGGAUCCACAUCUACGAAUUCGCUAGGAUGAAACAAUUUGGAGAAGUGUAGAUCGGAAGAGCACACGU
B13: target 2 MT 5'PFS GAG 3'PFS UUU (mixed)
RNA 1: CACCCGUGCAAAAUUGCAGGGGUCUAAAACCUUCUCCAAAUUGUUUCAUCCU
RNA 2: GGGAAUGGAUCCACAUCUACGAAUUCGAGAGGAUGAAACAAUUUGGAGAAGUUUAGAUCGGAAGAGCACACGU
B14: target 2 MT 5'PFS UGC 3'PFS AUA (mixed)
RNA 1: CACCCGUGCAAAAUUGCAGGGGUCUAAAACCUUCUCCAAAUUGUUUCAUCCU
RNA 2: GGGAAUGGAUCCACAUCUACGAAUUCUGCAGGAUGAAACAAUUUGGAGAAGAUAAGAUCGGAAGAGCACACGU
B15: target 2 MT 5'PFS UGC 3'PFS AUC (mixed)
RNA 1: CACCCGUGCAAAAUUGCAGGGGUCUAAAACCUUCUCCAAAUUGUUUCAUCCU
RNA 2: GGGAAUGGAUCCACAUCUACGAAUUCUGCAGGAUGAAACAAUUUGGAGAAGAUCAGAUCGGAAGAGCACACGU
B16: target 2 MT 5'PFS UUG 3'PFS UGU (mixed)
RNA 1: CACCCGUGCAAAAUUGCAGGGGUCUAAAACCUUCUCCAAAUUGUUUCAUCCU
RNA 2: GGGAAUGGAUCCACAUCUACGAAUUCUUGAGGAUGAAACAAUUUGGAGAAGUGUAGAUCGGAAGAGCACACGU
B17: target 2 MT 5'PFS UUG 3'PFS UGC (mixed)
RNA 1: CACCCGUGCAAAAUUGCAGGGGUCUAAAACCUUCUCCAAAUUGUUUCAUCCU
RNA 2: GGGAAUGGAUCCACAUCUACGAAUUCUUGAGGAUGAAACAAUUUGGAGAAGUGCAGAUCGGAAGAGCACACGU
B18: target 2 MT 5'PFS GUG 3'PFS UUA (mixed)
RNA 1: CACCCGUGCAAAAUUGCAGGGGUCUAAAACCUUCUCCAAAUUGUUUCAUCCU
RNA 2: GGGAAUGGAUCCACAUCUACGAAUUCGUGAGGAUGAAACAAUUUGGAGAAGUUAAGAUCGGAAGAGCACACGU
B19: target 2 MT 5'PFS GAG 3'PFS UUC (mixed)
RNA 1: CACCCGUGCAAAAUUGCAGGGGUCUAAAACCUUCUCCAAAUUGUUUCAUCCU
RNA 2: GGGAAUGGAUCCACAUCUACGAAUUCGAGAGGAUGAAACAAUUUGGAGAAGUUCAGAUCGGAAGAGCACACGU
B20: target 2 MT 5'PFS GAA 3'PFS UCU (mixed)
RNA 1: CACCCGUGCAAAAUUGCAGGGGUCUAAAACCUUCUCCAAAUUGUUUCAUCCU
RNA 2: GGGAAUGGAUCCACAUCUACGAAUUCGAAAGGAUGAAACAAUUUGGAGAAGUCUAGAUCGGAAGAGCACACGU
B21: target 2 MT 5'PFS AUG 3'PFS AUG (mixed)
RNA 1: CACCCGUGCAAAAUUGCAGGGGUCUAAAACCUUCUCCAAAUUGUUUCAUCCU
RNA 2: GGGAAUGGAUCCACAUCUACGAAUUCAUGAGGAUGAAACAAUUUGGAGAAGAUGAGAUCGGAAGAGCACACGU
B22: target 2 MT 5'PFS UAG 3'PFS ACG (mixed)
RNA 1: CACCCGUGCAAAAUUGCAGGGGUCUAAAACCUUCUCCAAAUUGUUUCAUCCU
RNA 2: GGGAAUGGAUCCACAUCUACGAAUUCUAGAGGAUGAAACAAUUUGGAGAAGACGAGAUCGGAAGAGCACACGU
B23: target 2 MT 5'PFS GUG 3'PFS UUC (mixed)
RNA 1: CACCCGUGCAAAAUUGCAGGGGUCUAAAACCUUCUCCAAAUUGUUUCAUCCU
RNA 2: GGGAAUGGAUCCACAUCUACGAAUUCGUGAGGAUGAAACAAUUUGGAGAAGUUCAGAUCGGAAGAGCACACGU
B24: target 1 insC 3' of 9,insA 3' of 3 (mixed)
RNA 1: CACCCGUGCAAAAAUGCAGGGGUCUAAAACUGAGCGGAUAACCUCUCUAUGG
RNA 2: GGGAAUGGAUCCACAUCUACGAAUUCGUACCAUAGAGAGGUUACUCCGCUACACCGAGAUCGGAAGAGCACACGU
B25: target 1 complement block 5-10 (mixed)
RNA 1: CACCCGUGCAAAAAUGCAGGGGUCUAAAACUGAGCGGAUAACCUCUCUAUGG
RNA 2: GGGAAUGGAUCCACAUCUACGAAUUCGUACCAUAGAGAGGUAUAGGCCUCACCGAGAUCGGAAGAGCACACGU
B26: target 1 insA 3' of 21,insC 3' of 8 (mixed)
RNA 1: CACCCGUGCAAAAAUGCAGGGGUCUAAAACUGAGCGGAUAACCUCUCUAUGG
RNA 2: GGGAAUGGAUCCACAUCUACGAAUUCGUACCAAUAGAGAGGUUAUCCCGCUCACCGAGAUCGGAAGAGCACACGU
B27: target 1 insA 3' of 13,insG 3' of 7 (mixed)
RNA 1: CACCCGUGCAAAAAUGCAGGGGUCUAAAACUGAGCGGAUAACCUCUCUAUGG
RNA 2: GGGAAUGGAUCCACAUCUACGAAUUCGUACCAUAGAGAGAGUUAUCGCGCUCACCGAGAUCGGAAGAGCACACGU

The record followed here is paper PMC10786891, “Massively parallel profiling of RNA-targeting CRISPR-Cas13d”.

In the data set the target is T1, EsCas13d, nuclease-dead. The data set is described as follows: crRNA (strand 1, pre-loaded); Mg2+; 40 mM Tris-HCl pH 7.5, 150 mM NaCl, 6 mM MgCl2, 1 mM DTT, 0.1% Tween-20, 0.2 mg/ml BSA; 25 C; 10 min per concentration, then washed. The settings on record: tags: His6-TwinStrep-SUMO cleaved; N-terminal SNAP kept (SNAP-Surface 488); label: 3' end held by stalled T7 RNA polymerase.
The molecule B1 showed a Kd of 18.9 ± 1.7 nM. The molecule B2 registered a Kd of 28 ± 6 nM. Under B3 stands 13.1 ± 1.6 nM; under B4, 6.9 ± 0.4 nM. Under B5 stands 15.9 ± 1.8 nM; under B6, 61 ± 13 nM. Under B7 stands 5.3 ± 1 nM; under B8, 32 ± 6 nM; under B9, 7.3 ± 2.1 nM. B10 showed a Kd of 16.7 ± 1.3 nM.

Consider B11, for which the Kd came to 3 ± 0.5 nM. Under B12 stands 17.7 ± 2.7 nM; under B13, 18 ± 2.2 nM; under B14, 28 ± 9 nM. In the case of B15 it was 33 ± 7 nM; in that of B16, 16.8 ± 1.9 nM; in that of B17, 14.1 ± 2.2 nM. For the molecule B18, the equilibrium dissociation constant (Kd) amounted to 22.5 ± 3.2 nM.

B19: the Kd came to 15.7 ± 2.5 nM. B20 returned a Kd of 30 ± 9 nM. In the case of B21 it was 9.9 ± 1.4 nM; in that of B22, 3.12 ± 0.29 nM. Consider B23, for which the Kd stood at 27 ± 4 nM. The molecule B24 came in with a Kd of 11.1 ± 0.6 nM.

The molecule B25 registered a Kd of 14.5 ± 0.7 nM.

For the molecule B26, the Kd is 21.5 ± 1.1 nM. In the case of B27 it was 4.48 ± 0.22 nM.

One may read the Kd as the free concentration of one partner at which half of the binding sites on the other are occupied at equilibrium, for simple one-to-one binding. A lower Kd goes with tighter binding.
